Assay results as given in publication PMC4375503, “Structural Insights into the Autoregulation and Cooperativity of the Human Transcription Factor Ets-2*”.

T1: Ets-2 325-464 (core Ets and autoinhibition domains) (Homo sapiens, UniProt P15036 325-464)
T1 sequence: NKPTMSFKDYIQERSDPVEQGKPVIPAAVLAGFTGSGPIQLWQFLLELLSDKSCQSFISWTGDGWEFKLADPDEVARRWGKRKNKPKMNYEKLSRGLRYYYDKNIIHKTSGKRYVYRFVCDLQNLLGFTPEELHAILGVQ

T2: Ets-2 360-464 (core Ets domain) (Homo sapiens, UniProt P15036 360-464)
T2 sequence: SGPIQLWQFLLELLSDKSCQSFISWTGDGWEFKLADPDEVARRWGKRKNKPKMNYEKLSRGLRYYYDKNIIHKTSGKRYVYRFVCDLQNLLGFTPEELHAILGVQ

T3: Ets-1 short (equivalent of Ets-2 360-464) (Mus musculus, UniProt P27577 331-440)
T3 sequence: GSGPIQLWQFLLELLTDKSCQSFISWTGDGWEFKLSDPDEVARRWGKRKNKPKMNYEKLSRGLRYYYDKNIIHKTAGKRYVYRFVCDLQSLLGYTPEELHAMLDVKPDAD

B1: crystallization 10-mer (dsDNA)
DNA 1: ACCGGAAGTG
DNA 2: CACTTCCGGT
B2: single-site EMSA probe (dsDNA)
DNA 1: ATCTCACCGGAAGTGTAGCA
DNA 2: TGCTACACTTCCGGTGAGAT

How the values were obtained:
[1] = biological target: T1, Ets-2 325-464 (core Ets and …); experiment: X-ray crystallography; 2.5 A; 3 Ets-2 and 3 duplexes per asymmetric unit; pH 5.5; EMSA: 50 mM Tris-HCl pH 7.5, 25 mM NaCl, 50 mM L-arginine-HCl, 0.5 mM EDTA, 0.1% Tween 20, 2 mM DTT, 5% glycerol, room temperature 15 min; probe 0.1 nM (Ets-2); conditions: protein: recombinant; tags: His tag removed by TEV; blunt
[2] = biological target: T2, Ets-2 360-464 (core Ets domain); experiment: EMSA; apparent Kd; EMSA: 50 mM Tris-HCl pH 7.5, 25 mM NaCl, 50 mM L-arginine-HCl, 0.5 mM EDTA, 0.1% Tween 20, 2 mM DTT, 5% glycerol, room temperature 15 min; probe 0.1 nM (Ets-2); conditions: protein: recombinant; tags: His tag removed by TEV; label: 5'-32P on strand 1; blunt
[3] = biological target: T3, Ets-1 short (equivalent of Ets-2 …); experiment: as above; conditions: protein: recombinant; tags: His tag removed by TEV; label: 5'-32P on strand 1; blunt

Binder	binding result [1]	Kd [2] [nM]	Kd [3] [nM]
B1	binds	–	–
B2	–	0.4 ± 0.04	0.1 ± 0.06
